Experimental findings from article PMC4512712 (Biochemistry, 2015) are described below.

Changes are numbered by the printed parent chain. In names and notes the source's numbering stands. Several values for one entry are separate records, joined by “and”; a condition that tells them apart may be missing. Identical values can stand only once. Like-named read-outs stand apart in the source and are kept apart here.

First the molecules themselves.
T1: Alpha-B-crystallin CTR CTR (Homo sapiens, UniProt P02511)
T1 chain: ERTIPITRE

T2: E117C-HSPB5, full length (oligomeric) (human, UniProt P02511 1-175, E117C)
T2 sequence: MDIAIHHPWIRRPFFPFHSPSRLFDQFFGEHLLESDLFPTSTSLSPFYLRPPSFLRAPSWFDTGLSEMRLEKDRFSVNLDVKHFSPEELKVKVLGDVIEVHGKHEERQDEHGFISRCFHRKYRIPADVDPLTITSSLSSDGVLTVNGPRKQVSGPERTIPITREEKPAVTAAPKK

T3: S135Q/E117C full-length HSPB5 oligomer (human, UniProt P02511 1-175, E117C | S135Q)
T3 sequence: T2 sequence with S135Q

T4: ΔN-HSPB6 (residues 65-160) (human, UniProt O14558 65-160)
T4 sequence: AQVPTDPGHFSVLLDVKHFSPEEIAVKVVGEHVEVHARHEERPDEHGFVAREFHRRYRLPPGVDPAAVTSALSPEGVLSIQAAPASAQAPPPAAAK

B1: HSPB6, full length, C46S (natural protein)
chain: MEIPVPVQPSWLRRASAPLPGLSAPGRLFDQRFGEGLLEAELAALSPTTLAPYYLRAPSVALPVAQVPTDPGHFSVLLDVKHFSPEEIAVKVVGEHVEVHARHEERPDEHGFVAREFHRRYRLPPGVDPAAVTSALSPEGVLSIQAAPASAQAPPPAAAK
B2: Alpha-B-crystallin ACD ACD (protein)
chain: GLSEMRLEKDRFSVNLDVKHFSPEELKVKVLGDVIEVHGKHEERQDEHGFISREFHRKYRIPADVDPLTITSSLSSDGVLTVNGPRKQV
B3: E117C-ACD-only (HSPB5 residues 64-152, E117C) (domain or fragment)
chain: B2 chain with E54C
modifications: disulfide-locked dimer through C117 under nonreducing conditions
B4: S135Q-HSPB5, full-length oligomer (natural protein)
chain: T2 sequence with C117E, S135Q

Data set [1] deals with the molecule itself. The data set can be described thus: SEC.
In data set [2] the target is B4. The data set can be described thus: SEC. (In gel filtration, larger molecules generally elute earlier.)
Data set [3] deals with the molecule itself.
Data set [4] has as its target T1, Alpha-B-crystallin CTR CTR.
Data set [5] deals with B4. The data set can be described thus: SEC. This is another data set of the same source.
Data set [6] addresses T2, E117C-HSPB5, full length (oligomeric). The data set can be described thus: cross-linking.
The target of data set [7] is T3, S135Q/E117C full-length HSPB5 oligomer. The data set can be described thus: cross-linking.
The target in data set [8] is T4, ΔN-HSPB6 (residues 65-160). The data set can be described thus: NMR titration.

What is called stoichiometry N is a count of units in the complex or per binding partner. On to B1, for which the “stoichiometry N” value in data set [1] is 2 and 4. Moreover, the binding result in data set [2] was “binds”.

As usually defined, the Kd is the constant that tells how readily two partners part at equilibrium. Read a high Kd as a looser complex. B2: the Kd in data set [3] was around 2 µM; in data set [4], around 100 µM. In data set [5], the binding result was “binds”.

As for B3, the binding result in data set [6] and in data set [7] was “binds” throughout.

Turning to B4, in data set [1], the binding result is “binds”.

For PERTIPITREEK [HSPB5-CTR peptide PERTIPITREEK], the binding result in data set [8] is recorded as “binds”.
